Key:
human ferroportin 1 [1] = biological target: T1, human ferroportin 1 (human, UniProt Q9NP59 1-571); assay: inhibition of binding of 30 nM biotinylated hepcidin to FPN/293 cells, ELISA of lysate; antibody at 7.8 nM; mean
T1 construct: also called human FPN1; FPN1
T1 sequence: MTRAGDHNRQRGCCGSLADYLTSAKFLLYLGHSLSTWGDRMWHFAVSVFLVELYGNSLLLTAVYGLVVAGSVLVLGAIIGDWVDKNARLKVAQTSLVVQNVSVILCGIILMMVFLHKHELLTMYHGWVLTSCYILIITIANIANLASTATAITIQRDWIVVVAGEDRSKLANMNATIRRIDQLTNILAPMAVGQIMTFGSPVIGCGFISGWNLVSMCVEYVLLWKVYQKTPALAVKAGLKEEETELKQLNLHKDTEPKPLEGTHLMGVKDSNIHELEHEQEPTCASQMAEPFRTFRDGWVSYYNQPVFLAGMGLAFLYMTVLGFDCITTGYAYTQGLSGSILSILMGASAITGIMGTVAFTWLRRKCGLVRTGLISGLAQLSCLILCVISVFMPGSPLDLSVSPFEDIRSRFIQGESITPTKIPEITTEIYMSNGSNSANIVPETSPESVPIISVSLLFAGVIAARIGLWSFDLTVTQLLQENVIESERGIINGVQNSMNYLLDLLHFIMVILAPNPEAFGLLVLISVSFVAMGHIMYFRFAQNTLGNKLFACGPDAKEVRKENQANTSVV
Method: (§1) Next, 65 μL of lysing buffer (0.5% Triton X-100, 10 mM EDTA) are added to all the wells and the plates are shaken for 10 minutes. Next, 50 μL of the solution in each well is transferred to individual wells of a streptavidin coated Greiner microtiter plate (60 μL of 2 μg/mL streptavidin (Sigma, St. Louis, Mo.; catalog no. S4762) in PBS, incubated at 4° C. overnight, washed 2 times (0.1% Tween 20, TBS), blocked with casein/PBS), and then incubated for one hour at room temperature. […] After incubating one hour at room temperature, the plate is washed 4× and 50 μL of OPD substrate (Sigma; catalog no. P6912) is added. The reaction is stopped with 100 μL 1 N HCl after 4 minutes. Absorbance at 490 nm (A₄₉₀) is read using an appropriate ELISA plate reader.

human ferroportin 1 [2] = biological target: T1, human ferroportin 1; assay: inhibition of binding of 30 nM biotinylated hepcidin to FPN/293 cells, ELISA of lysate
Method: as §1

human ferroportin 1 [3] = biological target: T1, human ferroportin 1; assay: inhibition of binding of 30 nM biotinylated hepcidin to FPN/293 cells, ELISA of lysate; antibody at 2000 nM; mean
Method: as §1

human ferroportin 1 [4] = biological target: T1, human ferroportin 1; assay: inhibition of binding of 30 nM biotinylated hepcidin to FPN/293 cells, ELISA of lysate; antibody at 31.25 nM; mean
Method: as §1

human ferroportin 1 [5] = biological target: T1, human ferroportin 1; assay: inhibition of binding of 30 nM biotinylated hepcidin to FPN/293 cells, ELISA of lysate; antibody at 125 nM; mean
Method: as §1

[6] = biological target: T2, human FPN1 C-terminally fused with GFP (human, UniProt Q9NP59 1-571, GFP reporter fused to the C-terminus ("FPN1 is C-terminally fused with GFP"). It is left out because the patent gives no letters for it.); assay: cell-based or functional assay
T2 sequence: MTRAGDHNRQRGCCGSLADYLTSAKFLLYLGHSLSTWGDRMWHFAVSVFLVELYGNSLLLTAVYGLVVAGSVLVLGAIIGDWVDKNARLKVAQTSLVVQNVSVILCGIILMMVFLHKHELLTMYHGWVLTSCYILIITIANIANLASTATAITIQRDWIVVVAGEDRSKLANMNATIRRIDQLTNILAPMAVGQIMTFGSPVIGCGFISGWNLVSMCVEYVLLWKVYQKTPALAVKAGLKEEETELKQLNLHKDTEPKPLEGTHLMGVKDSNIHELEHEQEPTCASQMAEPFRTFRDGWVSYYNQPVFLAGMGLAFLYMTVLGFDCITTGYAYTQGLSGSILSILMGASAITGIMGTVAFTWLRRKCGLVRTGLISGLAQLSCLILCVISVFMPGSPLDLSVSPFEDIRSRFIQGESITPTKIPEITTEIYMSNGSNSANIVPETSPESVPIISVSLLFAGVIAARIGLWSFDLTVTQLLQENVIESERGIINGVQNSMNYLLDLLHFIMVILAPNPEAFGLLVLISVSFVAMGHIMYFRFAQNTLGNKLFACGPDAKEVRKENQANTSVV

[7] = biological target: T2, human FPN1 C-terminally fused with GFP; assay: cell-based or functional assay; remark: listed apart in the source
[8] = biological target: T2, human FPN1 C-terminally fused with GFP; assay: SPR, Biacore T100, 37 C, 1:1 model; FPN1-GFP captured from cell lysate on rabbit anti-GFP antibody, Mab injected
Method: The affinities of FPN1 binding Fabs and Mabs may be determined on Biacore T100 and using 1:1 binding model in the Biacore T100 evaluation software (BIAcore® AB, Upsala, Sweden). […] FPN1 is C-terminally fused with GFP. Expression of FPN1-GFP is induced by 1-10 ng/mL doxycycline for 1-24 hours. Induced cells are harvested by scraping off from flasks and then washed with 1×PBS. Cell pellets can be stored at −80° C. before use. About five million induced cells are resuspended in 10 mM phosphate buffer with 0.2% Tween-20 and protease inhibitors, e.g., Complete™ Protease Inhibitor Cocktail Tablet (Roche Diagnostics Corp., Indianapolis, Ind.). Three cycles of freeze/thaw/sonication are used to lyse the cells. The lysate is diluted two-fold with Biacore running buffer and centrifuged to remove debris.
On Biacore T100, rabbit anti-GFP antibody or goat anti-GFP antibody is immobilized onto flow cell 1 to 4 of a CMS chip at 5000-15000 Rus. FPN1-GFP is captured onto flow cell 2, 3, or 4 from the lysate of induced cells. Flow cell 1 is used as reference. Then all flow cells are injected with different concentrations of antibodies to evaluate the binding and kinetics.

human ferroportin 1 [9] = biological target: T1, human ferroportin 1; assay: inhibition of binding of 30 nM biotinylated hepcidin to FPN/293 cells, ELISA of lysate; antibody at 500 nM; mean
Method: as §1

human ferroportin 1 [10] = biological target: T1, human ferroportin 1; assay: cell-based or functional assay

B1: Mab 3D8 (antibody, human IgG4 S228P, kappa, F234A L235A, V domains shown)
VH: QVQLVQSGAEVKKPGSSVKVSCKASGYAFTSFLIEWVRQAPGQGLEWMGTSNPRTGGTKYKEKFRGRVTITADKSTSTAYMELSSLRSEDTAVYYCAREFFDYWGQGTTVTVSS
VL: DIQMTQSPSSLSASVGDRVTITCRASKSISKYTAWYQQKPGKAPKLLIYAGSKLHSGVPSRFSGSGSGTDFTLTISSLQPEDFATYYCQQHNEYPYTFGGGTKVEIKR
notes: Humanized form of mouse 1G9 with human heavy chain framework VH1-69 and light chain framework O2; also called human 3D8
% Inhibition (human ferroportin 1 [1]): -2.8% | IC50 (human ferroportin 1 [2]): ~400 nM | % Inhibition (human ferroportin 1 [3]): 54.7% | % Inhibition (human ferroportin 1 [4]): 4% | % Inhibition (human ferroportin 1 [5]): 21.8% | Percent (%) Inhibition of Mature Human Hepcidin-induced Internalization and Degradation, Mab at 7.4 nM [6]: 28.1% | Percent (%) Inhibition of Mature Human Hepcidin-induced Internalization and Degradation, Mab at 22 nM [6]: 50.2% | Percent (%) Inhibition of Mature Human Hepcidin-induced Internalization and Degradation, Mab at 67 nM [6]: 55.7% | Percent (%) Inhibition of Mature Human Hepcidin-induced Internalization and Degradation, Mab at 200 nM [6]: 63.8% | Percent (%) Inhibition of Mature Human Hepcidin-induced Internalization and Degradation, Mab at 600 nM [6]: 66.4% | Absolute IC50 of inhibition of hepcidin-25-induced internalization and degradation of FPN1-GFP [7]: 13.7 nM | Relative IC50 of inhibition of hepcidin-25-induced internalization and degradation of FPN1-GFP [7]: 10.2 nM | Top % Inhibition of hepcidin-25-induced internalization and degradation of FPN1-GFP [7]: 86.8% | Kd [8]: 3.37 nM | koff [8]: 0.0011 s⁻¹ | kon [8]: 325000 M⁻¹ s⁻¹ | % Inhibition (human ferroportin 1 [9]): 64.7% | EC50 of inhibition of mature hepcidin induced increase in cellular ferritin, Caco-2 cells (human ferroportin 1 [10]): 360 nM | Percentage inhibition of mature hepcidin induced increase in cellular ferritin, Caco-2 cells, Mab at 2.22E-7 M (human ferroportin 1 [10]): 25.2% | Percentage inhibition of mature hepcidin induced increase in cellular ferritin, Caco-2 cells, Mab at 2.47E-8 M (human ferroportin 1 [10]): 3.4% | Percentage inhibition of mature hepcidin induced increase in cellular ferritin, Caco-2 cells, Mab at 2.7E-9 M (human ferroportin 1 [10]): 10.6% | Percentage inhibition of mature hepcidin induced increase in cellular ferritin, Caco-2 cells, Mab at 3.0E-10 M (human ferroportin 1 [10]): 7.3% | Percentage inhibition of mature hepcidin induced increase in cellular ferritin, Caco-2 cells, Mab at 6.67E-7 M (human ferroportin 1 [10]): 29.8% | Percentage inhibition of mature hepcidin induced increase in cellular ferritin, Caco-2 cells, Mab at 7.4E-8 M (human ferroportin 1 [10]): 12% | Percentage inhibition of mature hepcidin induced increase in cellular ferritin, Caco-2 cells, Mab at 8.0E-9 M (human ferroportin 1 [10]): 14.9% | Percentage inhibition of mature hepcidin induced increase in cellular ferritin, Caco-2 cells, Mab at 9.0E-10 M (human ferroportin 1 [10]): 8.6%

— US20130122013A1 (Eli Lilly, published 2013)
